Assay results from PMC3760248.
Positions count from the first letter of the chain named.

Assays:
Assay in all cases: ITC
MepR(A103S) = target: T1, MepR(A103S) (Staphylococcus aureus, UniProt Q5Y812 1-139, A103S)
T1 sequence: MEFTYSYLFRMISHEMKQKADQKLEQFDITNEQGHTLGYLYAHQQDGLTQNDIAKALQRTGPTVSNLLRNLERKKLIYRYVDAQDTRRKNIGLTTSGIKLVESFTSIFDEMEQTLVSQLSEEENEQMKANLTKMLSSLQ

MepR WT = target: T2, MepR WT (Staphylococcus aureus, UniProt Q5Y812 1-139)
T2 sequence: T1 sequence with S103A

MepR(F27L/F104A) = target: T3, MepR(F27L/F104A) (Staphylococcus aureus, UniProt Q5Y812 1-139, F27L;F104A)
T3 sequence: T1 sequence with F27L, S103A, F104A

MepR(Q18A) = target: T4, MepR(Q18A) (Staphylococcus aureus, UniProt Q5Y812 1-139, Q18A)
T4 sequence: T1 sequence with Q18A, S103A

B1: mepR operator, palindromic 26-mer (dsDNA)
DNA 1: TATTTAGTTAGATATCTAACTAAATA
DNA 2: TATTTAGTTAGATATCTAACTAAATA
Work on B1 yielded a Kd (MepR(A103S)) of 42.6 nM, a Kd (MepR WT) of 36.6 nM and a Kd (MepR(F27L/F104A)) of 32.3 nM. The Kd (MepR(Q18A)) was 34.1 nM.
